Patent US20260174888A1 (ARARIS BIOTECH, published 2026)
Where two headings read alike, the source gives them in different places.

Assays:
[1] = target: T1, CEACAM-5 (UniProt P06731 35-702, limits assumed); experiment: cell-based or functional assay
T1 sequence (looked up): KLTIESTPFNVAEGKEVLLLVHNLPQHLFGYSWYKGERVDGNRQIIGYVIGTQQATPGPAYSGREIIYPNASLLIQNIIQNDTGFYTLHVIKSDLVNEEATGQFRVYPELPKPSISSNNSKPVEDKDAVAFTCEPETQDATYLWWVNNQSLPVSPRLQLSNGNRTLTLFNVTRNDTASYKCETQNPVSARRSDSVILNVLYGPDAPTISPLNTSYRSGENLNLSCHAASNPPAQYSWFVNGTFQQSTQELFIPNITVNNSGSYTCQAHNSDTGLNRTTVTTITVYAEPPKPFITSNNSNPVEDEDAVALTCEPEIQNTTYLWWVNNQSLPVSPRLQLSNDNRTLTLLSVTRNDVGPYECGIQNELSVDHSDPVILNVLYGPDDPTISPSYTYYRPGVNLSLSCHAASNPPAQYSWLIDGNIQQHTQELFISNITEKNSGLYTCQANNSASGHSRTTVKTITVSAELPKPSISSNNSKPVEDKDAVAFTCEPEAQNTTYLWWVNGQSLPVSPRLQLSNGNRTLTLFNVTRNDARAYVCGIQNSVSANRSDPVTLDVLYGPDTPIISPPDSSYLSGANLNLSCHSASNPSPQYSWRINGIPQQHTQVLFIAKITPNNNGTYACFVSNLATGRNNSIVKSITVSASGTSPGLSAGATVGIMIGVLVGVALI

[2] = target: T1, CEACAM-5; experiment: cell-based or functional assay; remark: listed apart in the source

B1: ARA-20-RKAA-PABC-MMAE (antibody, human IgG1, kappa, V domains shown)
VH: EVQLVESGGGVVQPGRSLRLSCSASGFDFTTYWMSWVRQAPGKGLEWIGEIHPDSSTINYAPSLKDRFTISRDNAKNTLFLQMDSLRPEDTGVYFCASLYFGFPWFAYWGQGTPVTVSS
VL: DIQLTQSPSSLSASVGDRVTITCKASQDVGTSVAWYQQKPGKAPKLLIYWTSTRHTGVPSRFSGSGSGTDFTFTISSLQPEDIATYYCQQYSLYRSFGQGTKVEIKR
modifications: linker-payload RKAA-PABC-MMAE (FIG. 6) conjugated by MTG to the native, glycosylated antibody; conjugated residue not stated in the example
IC50 (nM), cytotoxicity on NCI-H2110 cells, CellTiterGlo viability, 96 hours [1]: 30.2 nM

B2: ARA-20-FA-PEG12-ARK-PABC-MMAE (antibody, human IgG1, kappa, V domains shown)
VH: B1 VH
VL: B1 VL
modifications: linker-payload FA-PEG12-ARK-PABC-MMAE (FIG. 5) conjugated by MTG to the native, glycosylated antibody; conjugated residue not stated in the example
IC50 (nM), cytotoxicity on NCI-H2110 cells, CellTiterGlo viability, 96 hours [2]: 27.8 nM

B3: ARA-20-FA-PEG12-RKAA-PABC-MMAE (antibody, human IgG1, kappa, V domains shown)
VH: B1 VH
VL: B1 VL
modifications: linker-payload FA-PEG12-RKAA-PABC-MMAE (FIG. 4) conjugated by MTG to the native, glycosylated antibody; conjugated residue not stated in the example
IC50 (nM), cytotoxicity on NCI-H2110 cells, CellTiterGlo viability, 96 hours [1]: 4.68 nM

B4: ARA-20-FA-PEG24-RKAA-PABC-MMAE (antibody, human IgG1, kappa, V domains shown)
VH: B1 VH
VL: B1 VL
modifications: linker-payload FA-PEG24-RKAA-PABC-MMAE (FIG. 3) conjugated by MTG to the native, glycosylated antibody; conjugated residue not stated in the example
IC50 (nM), cytotoxicity on NCI-H2110 cells, CellTiterGlo viability, 96 hours [1]: 5.93 nM

B5: ARA-20-ARK-PABC-MMAE (antibody, human IgG1, kappa, V domains shown)
VH: B1 VH
VL: B1 VL
modifications: linker-payload ARK-PABC-MMAE conjugated by MTG to the native, glycosylated antibody; conjugated residue not stated in the example
IC50 (nM), cytotoxicity on NCI-H2110 cells, CellTiterGlo viability, 96 hours [2]: 58 nM
